From US20110110945A1, “Immunoglobulin Fusion Proteins and Methods of Making” (TransTech Pharma, Inc., priority 2007, published 2011)

Legend:
Settings in all cases: ligand 5 micrograms per well; dilutions of initial fusion protein solution; FIG. 7
S100b = molecular target: T1, S100b (Homo sapiens, UniProt P04271); assay: In vitro ligand binding assay (ELISA), immobilized S100b
T1 sequence (P04271 1-92): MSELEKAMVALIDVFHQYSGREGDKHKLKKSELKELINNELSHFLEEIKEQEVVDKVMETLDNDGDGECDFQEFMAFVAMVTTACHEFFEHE
Method: (§1) For example, the fusion protein may be used in a binding assay to identify potential ligands that bind to the non-immunoglobulin protein. In one example embodiment of such a binding assay, a known ligand may coated onto a solid substrate (e.g., Maxisorb plates) at a biologically relevant concentration (e.g., about 5 micrograms per well), where each well contains a total volume of about 100 microliters (μL). The plates may be incubated at 4° C. overnight to allow the ligand to bind to the substrate. Alternatively, shorter incubation periods at higher temperature (e.g., room temperature) may be used. After a period of time to allow for the ligand to bind to the substrate, the assay wells may be aspirated and a blocking buffer (e.g., 1% BSA in 50 mM imidizole buffer, pH 7.2) may be added to block nonspecific binding. […] The fusion protein bound to the immobilized ligand may be detected in a variety of ways. […] The bound complex may be detected by adding a substrate for the secondary antibody complex, e.g., the alkaline phosphatase substrate, para-nitrophenylphosphate (PNPP), and measuring conversion of PNPP to para-nitrophenol (PNP) as an increase in absorbance at 405 nm. […] In the absence of ligand (i.e., coating with only BSA) there was no increase in absorbance. The binding assay of the present invention may be used to quantify ligand binding. […]

[1] = molecular target: T2, amyloid-beta (Amyloid Beta (1-40)) (Homo sapiens, UniProt P05067); assay: In vitro ligand binding assay (ELISA), immobilized amyloid-beta
T2 construct: Amyloid Beta (1-40) from Biosource; purchased Biosource
Method: as §1

amphoterin = molecular target: T3, amphoterin (Homo sapiens, UniProt P09429); assay: In vitro ligand binding assay (ELISA), immobilized amphoterin
T3 sequence (P09429 1-215): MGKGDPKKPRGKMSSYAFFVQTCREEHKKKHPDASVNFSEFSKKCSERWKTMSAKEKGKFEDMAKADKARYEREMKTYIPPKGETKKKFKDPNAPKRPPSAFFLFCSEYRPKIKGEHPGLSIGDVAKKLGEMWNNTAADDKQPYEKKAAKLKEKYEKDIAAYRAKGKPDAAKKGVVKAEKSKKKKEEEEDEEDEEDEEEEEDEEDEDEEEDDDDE
Method: as §1

T2 sequence (P05067 672-711 limits assumed): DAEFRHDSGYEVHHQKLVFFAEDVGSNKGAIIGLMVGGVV

B1: TTP-3000: RAGE fusion protein: V domain of human RAGE (amino acids 1-136) linked to hinge-less CH2 and CH3 of human IgG1; SEQ ID NO: 17/19 (protein)
chain 1: MAAGTAVGAWVLVLSLWGAVVGAQNITARIGEPLVLKCKGAPKKPPQRLEWKLNTGRTEAWKVLSPQGGGPWDSVARVLPNGSLFLPAVGIQDEGIFRCQAMNRNGKETKSNYRVRVYQIPGKPEIVDSASELTAGPSVFLFPPKPKDTLMISRTPEVTCVVVDVSHEDPEVKFNWYVDGVEVHNAKTKPREEQYNSTYRVVSVLTVLHQDWLNGKEYKCKVSNKALPAPIEKTISKAKGQPREPQVYTLPPSRDELTKNQVSLTCLVKGFYPSDIAVEWESNGQPENNYKTTPPVLDSDGSFFLYSKLTVDKSRWQQGNVFSCSVMHEALHNHYTQKSLSLSPGK
chain 2: ENITARIGEPLVLKCKGAPKKPPQRLEWKLNTGRTEAWKVLSPQGGGPWDSVARVLPNGSLFLPAVGIQDEGIFRCQAMNRNGKETKSNYRVRVYQIPGKPEIVDSASELTAGPSVFLFPPKPKDTLMISRTPEVTCVVVDVSHEDPEVKFNWYVDGVEVHNAKTKPREEQYNSTYRVVSVLTVLHQDWLNGKEYKCKVSNKALPAPIEKTISKAKGQPREPQVYTLPPSRDELTKNQVSLTCLVKGFYPSDIAVEWESNGQPENNYKTTPPVLDSDGSFFLYSKLTVDKSRWQQGNVFSCSVMHEALHNHYTQKSLSLSPGK
modifications: synthetic three domain RAGE-Fc IgG fusion protein; synthetic three domain RAGE-Fc IgG fusion protein having signal sequence removed
specifically interact: binding to immobilized S100b (increase in absorbance at 405 nm) (S100b) | binding to immobilized amyloid-beta (increase in absorbance at 405 nm) [1] | binding to immobilized amphoterin (increase in absorbance at 405 nm) (amphoterin)
